Assay results published in patent US20250263502A1.
Residue numbers refer to the chain shown, from its start. Names and notes keep the numbering of the source. Values belong to the binder of their own block, whether it stands above or below them.

Legend:
[1] = molecular target: Human serum albumin (human) (UniProt P02768); test: ELISA, expression medium of VNAR-hFc on coated protein (negative control)
[2] = molecular target: ectodomain of murine CD98hc (mouse) (UniProt P10852); test: ELISA, expression medium of VNAR-hFc on coated protein
Chain of ectodomain of murine CD98hc (mouse) (P10852 100-526): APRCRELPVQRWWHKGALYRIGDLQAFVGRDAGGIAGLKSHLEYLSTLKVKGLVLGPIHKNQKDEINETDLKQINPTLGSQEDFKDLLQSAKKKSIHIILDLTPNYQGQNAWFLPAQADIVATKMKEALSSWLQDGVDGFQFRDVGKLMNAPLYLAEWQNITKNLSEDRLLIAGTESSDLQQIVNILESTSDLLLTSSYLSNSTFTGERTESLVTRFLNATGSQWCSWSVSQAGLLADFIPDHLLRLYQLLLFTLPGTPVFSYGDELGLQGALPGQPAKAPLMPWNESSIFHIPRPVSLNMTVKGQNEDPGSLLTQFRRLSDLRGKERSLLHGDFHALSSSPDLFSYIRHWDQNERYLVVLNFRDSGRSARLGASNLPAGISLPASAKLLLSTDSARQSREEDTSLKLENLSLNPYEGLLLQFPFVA

[3] = molecular target: ectodomain of human CD98hc (human) (UniProt P08195); test: as above
Chain of ectodomain of human CD98hc (human) (P08195 206-630): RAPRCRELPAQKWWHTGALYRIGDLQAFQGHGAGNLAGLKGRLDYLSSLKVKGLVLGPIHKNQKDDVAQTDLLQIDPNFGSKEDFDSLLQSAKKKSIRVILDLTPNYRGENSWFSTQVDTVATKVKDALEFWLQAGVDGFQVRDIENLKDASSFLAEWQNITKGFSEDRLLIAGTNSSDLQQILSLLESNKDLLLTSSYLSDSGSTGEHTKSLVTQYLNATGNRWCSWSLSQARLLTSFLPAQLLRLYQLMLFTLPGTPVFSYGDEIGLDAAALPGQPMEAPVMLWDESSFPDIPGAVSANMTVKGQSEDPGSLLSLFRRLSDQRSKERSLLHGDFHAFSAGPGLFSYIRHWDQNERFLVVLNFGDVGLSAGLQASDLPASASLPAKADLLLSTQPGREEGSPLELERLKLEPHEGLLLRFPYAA

[4] = molecular target: ectodomain of murine CD98hc (mouse) (UniProt P10852); test: ELISA, purified VNAR-Fc titrated on coated CD98hc

Chain of Human serum albumin (human) (P02768 25-609 limits assumed): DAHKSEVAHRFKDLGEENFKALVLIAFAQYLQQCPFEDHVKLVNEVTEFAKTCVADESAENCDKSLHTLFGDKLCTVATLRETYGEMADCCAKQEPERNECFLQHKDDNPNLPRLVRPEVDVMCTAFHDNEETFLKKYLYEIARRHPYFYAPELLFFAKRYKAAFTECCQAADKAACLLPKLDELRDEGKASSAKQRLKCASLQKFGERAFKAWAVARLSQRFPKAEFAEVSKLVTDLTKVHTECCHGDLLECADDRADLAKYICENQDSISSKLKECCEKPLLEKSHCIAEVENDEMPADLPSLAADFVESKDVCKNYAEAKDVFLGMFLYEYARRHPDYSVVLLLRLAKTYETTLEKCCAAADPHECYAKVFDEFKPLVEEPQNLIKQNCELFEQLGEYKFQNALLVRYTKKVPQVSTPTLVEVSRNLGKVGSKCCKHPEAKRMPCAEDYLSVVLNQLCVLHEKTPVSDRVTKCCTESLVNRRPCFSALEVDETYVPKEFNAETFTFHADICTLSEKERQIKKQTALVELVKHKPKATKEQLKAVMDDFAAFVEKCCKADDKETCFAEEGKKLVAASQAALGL

- EC50 [4]: 0.504 µM
- Binding [relative units] (relative units) [1]: 0.072
- Binding [relative units] (relative units) [2]: 0.108
B2: VNAR clone H7 fused N-terminally to human IgG1 Fc (VNAR-hFc) (Fc fusion, not shown: a dimerising Fc or GST)
chain: ARVDQTPQTITKEEGESLTINCVLRYNNPALASTSWYRKKSGSTREETISKGGRYVETVNSGSKSFSLRINDLTVEDSGTYRCNVYFFPSFLVDKLQSHDVYGDGTAVTVNA

- Binding [relative units] (relative units) [1]: 0.054
- Binding [relative units] (relative units) [2]: 0.044
- Binding [relative units] (relative units) [3]: 0.044
B4: VNAR clone G12 fused N-terminally to human IgG1 Fc (VNAR-hFc) (Fc fusion, not shown: a dimerising Fc or GST)
chain: ARVDQTPQTITKETGESLTINCVLRDSNCALSSTYWYRKKSGSTNEALISKGGRYVETVNSGSKSFSLRINDLTVEDSGTYRCNVVQDLRDDCFFRDVYGGGTAVTVNA

- Binding [relative units] (relative units) [1]: 0.052
- Binding [relative units] (relative units) [2]: 0.041
- Binding [relative units] (relative units) [3]: 0.042
B7: VNAR clone G6 fused N-terminally to human IgG1 Fc (VNAR-hFc) (Fc fusion, not shown: a dimerising Fc or GST)
chain: ARVDQTPQTITKEEGESLTINCVLRVETRALASTSWYRKKSGSTREETISKGGRYVETVNSGSKSFSLRINDLTVEDSGTYRCNVYIRHYSEFTQAPFRDVYGDGTAVTVNA

- EC50 [4]: 0.086 µM
- Binding [relative units] (relative units) [1]: 0.06
- Binding [relative units] (relative units) [2]: 0.186
B8: VNAR clone H6 fused N-terminally to human IgG1 Fc (VNAR-hFc) (Fc fusion, not shown: a dimerising Fc or GST)
chain: ARVDQTPQTITKEEGESLTINCVLRTHSNALASTSWYRKKSGSTREETISKGGRYVETVNSGSKSFSLRINDLTVEDSGTYRCNVYAFLEIQPNIYHEFDVYGDGTAVTVNA

- Binding [relative units] (relative units) [1]: 0.054
- Binding [relative units] (relative units) [2]: 0.043
- Binding [relative units] (relative units) [3]: 0.043
B10: VNAR clone H7A fused N-terminally to human IgG1 Fc (VNAR-hFc) (Fc fusion, not shown: a dimerising Fc or GST)
chain: PGVDQTEQTIKKEEGESVTIKCVMRVKYPALASTSRYRKKSGSREETISKGGRYVETVNYSSKSISVRINDMTVEDSGRYRCNVYEEYAVDCDALVYQDVYGDGTAVTVNA

- Binding [relative units] (relative units) [1]: 0.051
- Binding [relative units] (relative units) [2]: 0.041
- Binding [relative units] (relative units) [3]: 0.043
B11: VNAR clone G10 fused N-terminally to human IgG1 Fc (VNAR-hFc) (Fc fusion, not shown: a dimerising Fc or GST)
chain: ARVDQTPQTITKETGESLTINCVLRDSNCALSSTYWYRKKSGSTNEENISKGGRYVETVNSGSKSFSLKINDLTVEDSGTYRCKVVFKLFSGRACAGEKDVYGGGTVVTVNA

- Binding [relative units] (relative units) [1]: 0.055
- Binding [relative units] (relative units) [2]: 0.045
- Binding [relative units] (relative units) [3]: 0.046
B14: VNAR clone H12 fused N-terminally to human IgG1 Fc (VNAR-hFc) (Fc fusion, not shown: a dimerising Fc or GST)
chain: ARVDQTPQTITKEEGESLTINCVLRVHGCALASTSWYRKKSGSTREETISKGGRYVETVNSGSKSFSLRINDLTVEDSGTYRCNVYGLSFVDIEGVKKIDVYGDGTAVTVNA

- Binding [relative units] (relative units) [1]: 0.053
- Binding [relative units] (relative units) [2]: 0.041
B16: VNAR clone G3 fused N-terminally to human IgG1 Fc (VNAR-hFc) (Fc fusion, not shown: a dimerising Fc or GST)
chain: ARVDQTPQTITKETGESLTINCVLRDNNCALSTTYWYRKKSGSTNEENISKGGRYVETVNSGSKSFSLRINDLTVEDSGTYRCKVHFFPSFCNSTSIRSVDVYGGGTVVTVNA

- Binding [relative units] (relative units) [1]: 0.059
- Binding [relative units] (relative units) [2]: 0.049
- Binding [relative units] (relative units) [3]: 0.048
B17: VNAR clone H8 fused N-terminally to human IgG1 Fc (VNAR-hFc) (Fc fusion, not shown: a dimerising Fc or GST)
chain: ARVDQTPQTITKETGESLTINCVLRDSNCALPSTYWYRKKSGSTNEESISKGGRYVETVNSGSKSFSLRINDLVVEDSGTYRCKVGNYCIRLCYDMKFAVDVYGGGTAVTVNA

Second part, the binder before the results:

B1: VNAR clone F11 fused N-terminally to human IgG1 Fc (VNAR-hFc) (Fc fusion, not shown: a dimerising Fc or GST)
chain: ARVDQTPQTITKEEGESLTINCVLRGEFYALASTSWYRKKSGSTREETISKGGRYVETVNSGSKSFSLRINDLTVEDSGTYRCNVYGYRIFSPEVKGPNDVYGDGTAVTVNA
- Binding [relative units] (relative units) [1]: 0.072
- Binding [relative units] (relative units) [2]: 0.096
- Binding [relative units] (relative units) [3]: 3.03

B3: VNAR clone A8 fused N-terminally to human IgG1 Fc (VNAR-hFc) (Fc fusion, not shown: a dimerising Fc or GST)
chain: ARVDQTPQTITKEEGESLTINCVLRRNFQLASTSWYRKKSGSTREETISKGGRYVETVNSGSKSFSLRINDLTVEDSGTYRCNVYGFVEFAKNIVEFIDVYGDGTAVTVNA
- Binding [relative units] (relative units) [1]: 0.065
- Binding [relative units] (relative units) [2]: 0.135
- Binding [relative units] (relative units) [3]: 2.97

B5: VNAR clone C6 fused N-terminally to human IgG1 Fc (VNAR-hFc) (Fc fusion, not shown: a dimerising Fc or GST)
chain: B4 chain with Q87Y
- Binding [relative units] (relative units) [1]: 0.052
- Binding [relative units] (relative units) [2]: 0.042
- Binding [relative units] (relative units) [3]: 0.041

B6: VNAR clone B12 fused N-terminally to human IgG1 Fc (VNAR-hFc) (Fc fusion, not shown: a dimerising Fc or GST)
chain: ARVDQTPRSVTKETGESLTINCVLRDASYALGSTCWYRKKSGSTNEESISKGGRYVETVNSGSKSFSLRINDLTVEDGGTYRCGVARGWRTLNYLCDVRTGEWSCVWRAAACGDGTAVTVNA
- Binding [relative units] (relative units) [1]: 0.081
- Binding [relative units] (relative units) [2]: 0.084
- Binding [relative units] (relative units) [3]: 0.076

B9: VNAR clone E12 fused N-terminally to human IgG1 Fc (VNAR-hFc) (Fc fusion, not shown: a dimerising Fc or GST)
chain: ARVDQTPQTITKEEGESLTINCVLRTQDPALASTSWYRKKSGSTREETISKGGRYVETVNSGSKSFSLRINDLTVEDSGTYRCNVYFLLAPTKTKLQGIDVYGDGTAVTVNA
- EC50 [4]: 0.819 µM
- Binding [relative units] (relative units) [1]: 0.056
- Binding [relative units] (relative units) [2]: 0.078

B12: VNAR clone F1 fused N-terminally to human IgG1 Fc (VNAR-hFc) (Fc fusion, not shown: a dimerising Fc or GST)
chain: B14 chain with C29R, F90S, V91G
- EC50 [4]: 3.86 µM
- Binding [relative units] (relative units) [1]: 0.073
- Binding [relative units] (relative units) [2]: 0.115

B13: VNAR clone F12 fused N-terminally to human IgG1 Fc (VNAR-hFc) (Fc fusion, not shown: a dimerising Fc or GST)
chain: B14 chain with C29R, V91G
- EC50 [4]: 0.072 µM
- Binding [relative units] (relative units) [1]: 0.112
- Binding [relative units] (relative units) [2]: 0.563

B15: VNAR clone D1 fused N-terminally to human IgG1 Fc (VNAR-hFc) (Fc fusion, not shown: a dimerising Fc or GST)
chain: ARVDQTPQTITKEEGESLTINCVLRHNYSALASTSWYRKKSGSTREETISKGGRYVETVNSGSKSFSLRINDLTVEDSGTYRCNVYGISFIEEKIRYDFDVYGDGTAVTVNA
- EC50 [4]: 0.19 µM
- Binding [relative units] (relative units) [1]: 0.074
- Binding [relative units] (relative units) [2]: 0.417
